This is an account of results in paper doi:10.64898/2025.12.14.694184 (bioRxiv, 2025).

The chains are these.
B1: human TorsinA-StrepTagII-FLAG-StrepTagII (enzyme, UniProt O14656 21-332, looked up)
chain: VEPISLGLALAGVLTGYIYPRLYCLFAECCGQKRSLSREALQKDLDDNLFGQHLAKKIILNAVFGFINNPKPKKPLTLSLHGWTGTGKNFVSKIIAENIYEGGLNSDYVHLFVATLHFPHASNITLYKDQLQLWIRGNVSACARSIFIFDEMDKMHAGLIDAIKPFLDYYDLVDGVSYQKAMFIFLSNAGAERITDVALDFWRSGKQREDIKLKDIEHALSVSVFNNKNSGFWHSSLIDRNLIDYFVPFLPLEYKHLKMCIRVEMQSRGYEIDEDIVSRVAEEMTFFPKEERVFSDKGCKTVFTKLDYYYDD

The data set “native gel or EMSA” concerns the molecule itself. The data set is described as follows: native gel or EMSA.
The data set “non-reducing SDS-PAGE” deals with the molecule itself. Nature of the data set: non-reducing SDS-PAGE.
Data set [1] addresses B1. Nature of the data set: pull-down.

B1: the binding result in “native gel or EMSA” is “binds”.

B2: mouse CLCC1 N-terminal domain dimer (CLCC1-NTD-6×His) (domain or fragment, UniProt Q99LI2 19-184, looked up)
chain: HDDDWIDPTDMLNYDAASGTMRKSQVRSGTSEKKEVSPDSSEAEELSDCLHRLDSLTHKVDSCEKKKMKDYESQSNPVFRRYLNKILIEAGKLGLPDENKVEMRYDAEILLSRQTLLEIQKFLSGEEWKPGALDDALSDILINFKCHDSEAWKWQFEDYFGVDPYN
modifications: inter-molecular disulfide bonds in the dimer
As a reminder, the stoichiometry N is a count of units in the complex or per binding partner. For the molecule B2, the “stoichiometry N” value in the data set “non-reducing SDS-PAGE” stood at 2. For the same molecule, the binding result in data set [1] is recorded as “binds”.
